The results in this text go back to the DeepSol protein solubility set.

The nature of the series: soluble on expression in E. coli; label from the status in PepcDB or PDB records.
“MFLEKDMQKNTLWFNGLSMDDVDKVGGKNASLGEMVSNLANVGVSVPNGFATTSYAFNQFLDHEGLDERIHQLLDELDVDDVEALRKTGATIRQWVLQAPFPADLEQEIRNNYEELIEGNTELSVAVRSSATAEDLPDASFAGQQETFLNVKGIDAVLEATKHVYASLFNDRAISYRVHQGFDHRGISLSAGIQRMVRSDKASSGVMFTLDTESGFDQVVFITSSWGLGEMVVQGAVNPDEFYVHKPMLEAGEHPIVKKTFGSKLIKMIYSNNQEIGKQVDIIDTSEEERNTFSLNEEEIKELAKQAMIIEKHYQRPMDIEWAKDGIDGKLYIVQARPETVCSQTEQNVIERYELNNKADVLVEG”: the “soluble on expression in E. coli” value is on record as “not soluble”. Under “MFLGTYTPKLDDKGRLTLPAKFRDALAGGLMVTKSQDHSLAVYPRAAFEQLARRASKAPRSNPEARAFLRNLAAGTDEQHPDSQGRITLSADHRRYASLSKDCVVIGAVDYLEIWDAQAWQNYQQIHEENFSAASDEALGDIF” stands “not soluble”; under “MFLVVGQGNPGERYARTRHNLGFMVLDRLGLSFRPRGEALVAEAEGGLFLKPLTYYNLTGRAVAPLARFYKIPPERILVVHDEMDLPLGRIRFKAGGSAAGNRGVLSIEEALGTRAFHRLRLGIGKPPDPSRGAEYVLSPFREEELPVVERVLEAAKEAVWCWVREGLPPCAGRFNGLDLSLG”, “soluble”; under “MFNFANVYQQIAQHPQLQLWLNTLPQQLTDWQAKQHGDLDRWMRNLKKIPVGQPEVIDLKNAVAAHNHQPLAQGEQKKLEAVLKTFHPWRKGPYHLHGIHIDTEWRSDWKWDRLLPHISPLKNRLVLDVGCGNGYHMWRMLGEGAQQVFGIDPSELFLIQFEAVRKLLGDDQRVHLLPLGIEQMPELNAFDTVFSMGVLYHRRSPLDHLLQLKNQLVAGGELILETLVVEGDEHTVLVPFDRYAQMRNVYFFPSALALKVWLEKTGFVDVRIVDENITSLGEQRTTEWMTHNSLPDYVDPQDPSKTIEGYPAPRRAILIAKKP”, “not soluble”. On to “MFQLSTQDIHLAAQADNKNAAITQVAAALTQAGCVTAAYVDGMLAREQQTSTYLGNGIAIPHGTTDTRDQVLNTGVQVFQFPQGIEWGADQTAYIVIGIAARSDEHLALLRQLTHVLSDDAVAARLAKTTSAEELRSLLMGEQKTAEFHFDTSLIALDVAADNLITLQALNAGRLQQIGAVDARFVSDVITREPLNLGQGIWLSDSTEGNLVSAVTISRPATAFEHKGEKVALLLTLSVADDQPLTVLNYLSELLLAQKADALLNADAAALLALLTSEYVEQSKVLSAEFVIRNEHGLHARPGTILVNTIKQFTSEITVTNLDGTGKPANGRSLMKVVALGVKKGNRLRFTASGEDAQTALDTIGEVIAAGLGEGAA”, for which the “soluble on expression in E. coli” value was “not soluble”. Turning to “MFQLSVQDIHPGQQAGNKEEAIRQVAAALVSAGNVADGYVNGMLAREQQTSTFLGNGIAIPHGTTDTRDQVLKTGVQVFQFPQGVTWGEGQTAYVAIGIAASSDEHLGLLRQLTHVLSDDAVAAQLQSATTAEELRALLMGEKQSEALKLDNETLSLDVAASDLLTLQALNAARLKEVGAVDAAFVSHVINDTPLNLGQGVWLNDSAEGNLRSAVAVSRAANAFTRDEQPVSLLVTVAMADEQPTAVLNRLSKLLLDKKAEHLLKADAATVLALLTSDDAIAEDVLSAEFVVRNEHGLHARPGTMLVNTIKQFSSDITVTNLDGSGKPANGRSLMKVVALGVKKGHRLRFTAQGEDAQQALDAIGEAIAAGLGEGA”, the “soluble on expression in E. coli” value is “not soluble”. With “MFQQLSARLQEAIGRLRGRGRITEEDLKATLREIRRALMDADVNLEVARDFVERVREEALGKQVLESLTPAEVILATVYEALKEALGGEARLPVLKDRNLWFLVGLQGSGKTTTAAKLALYYKGKGRRPLLVAADTQRPAAREQLRLLGEKVGVPVLEVMDGESPESIRRRVEEKARLEARDLILVDTAGRLQIDEPLMGELARLKEVLGPDEVLLVLDAMTGQEALSVARAFDEKVGVTGLVLTKLDGDARGGAALSARHVTGKPIYFAGVSEKPEGLEPFYPERLAGRILGMGDIESILEKVKGLEEYDKIQKKMEDVMEGKGKLTLRDVYAQIIALRKMGPLSKVLQHIPGLGIMLPTPSEDQLKIGEEKIRRWLAALNSMTYKELENPNIIDKSRMRRIAEGSGLEVEEVRELLEWYNNMNRLLKMVK”, the “soluble on expression in E. coli” value is “soluble”. For the sequence “MFRGATAVNLDSKGRVAIPTRYRAEILEKNQGQMVCTVDIRQSCLLLYPLDEWEKIEQKLLALSNFDPTQRRLQRVMLGHATECEMDAQGRILLSGPLRQHAKLEKGLMLVGQLNKFEIWSDVEWHTQIAEDIEIGSSTDFAADALNDFSL”, the “soluble on expression in E. coli” value is recorded as “not soluble”. Under “MFRNNYDGDTVTFSPTGRLFQVEYALEAIKQGSVTVGLRSNTHAVLVALKRNADELSSYQKKIIKCDEHMGLSLAGLAPDARVLSNYLRQQCNYSSLVFNRKLAVERAGHLLCDKAQKNTQSYGGRPYGVGLLIIGYDKSGAHLLEFQPSGNVTELYGTAIGARSQGAKTYLERTLDTFIKIDGNPDELIKAGVEAISQSLRDESLTVDNLSIAIVGKDTPFTIYDGEAVAKYI” stands “soluble”. Under “MFRVITRGAHTAASRQALIEKIIRVDHAGELGADRIYAGQLAVLQGSSVGSVIKKMWDEEKEHLDTMERLAAKHNVPHTVFSPVFSVAAYALGVGSALLGKEGAMACTIAVEELIGQHYNDQLKELLADDPETHKELLKILTRLRDEELHHHDTGVEHDGMKAPAYSALKWIIQTGCKGAIAIAEKI” stands “not soluble”; under “MFSGIKGPNPSDLKGPELRILIVHARWNLQAIEPLVKGAVETMIEKHDVKLENIDIESVPGSWELPQGIRASIARNTYDAVIGIGVLIKGSTMHFEYISEAVVHGLMRVGLDSGVPVIFGLLTVLNEEQALYRAGLNGGHNHGNDWGSAAVEMGLKALY”, “soluble”; under “MFSQNPYESHVDVAVSAASANLRNMTNEQLISLLDDDALLESIIVNLPQVRSMPTDKESALAANKSLAEWNLAQKPRIDAAKTQTVDLYDQVKKLQGEVAVLKSQLDSVSSSKSLDTTSSLMQVAAQEADDDAEALFTQFENGEISVEIFLKQFKDKKTIAHLRKIKSDRLAALLREQTYSSYAQPTVPPPMPHAQPGYPTGNHMPGIGNIQFGSGYSGYPNISQPSAGRHPFF”, “not soluble”. Under “MFSRVRVSAPSHVHAGNYDIEGSIGRLYGTVGLALGEPRLTLEASPSHSVEVEGGSRRREAEDLARLYLDKVGSRGCRLEGVKIRIYEEIPAHVGLGSTTALALSIGSSIYRICGLEPLDLRELAVTAGRSLVSALGLYSFEQGGLIVDGGFVRGERRPPPLVFRAHVPGSVKVVVALPERPIAKILDIKRREDELLARMPPMDPSMAGWASRVVLLGIMANAAEGRWGEAARWMGEFNRRLGEYWAGEQGGIYCCSEVEEIVRAMVDAGAWSGLQSSWGPTVYGLTPARRAASVLEAARRAVERVGGGKVWVTSVDNVGAVISSF” stands “not soluble”. As to “MFSTVFVAGYGNSTEGHWQNSWCKITKNSYWVEQEDWNNPNCVDWIESLNALVQSIDGPILLVSHSLGGSTIVEWSKKYSANIIGAFMVAVPDVQCEHFPKEISGYQLPPLEKLPFPSMLLASTNDPYSTLDRSKYFVDIWGSDLTIVGDLKHVNADSNIGEWSYGLNLLNKFITSIDS”, the “soluble on expression in E. coli” value is recorded as “not soluble”.

In the case of “MFTATEAVPVAKVVAGNKRYPGVVALDNVNFTLNKGEVRALLGKNGAGKSTLIRMLTGSERPDSGDIWIGETRLEGDEATLTRRAAELGVRAVYQELSLVEGLTVAENLCLGQWPRRNGMIDYLQMAQDAQRCLQALGVDVSPEQLVSTLSPAQKQLVEIARVMKGEPRVVILDEPTSSLASAEVELVISAVKKMSALGVAVIYVSHRMEEIRRIASCATVMRDGQVAGDVMLENTSTHHIVSLMLGRDHVDIAPVAPQEIVDQAVLEVRALRHKPKLEDISFTLRRGEVLGIAGLLGAGRSELLKAIVGLEEYEQGEIVINGEKITRPDYGDMLKRGIGYTPENRKEAGIIPWLGVDENTVLTNRQKISANGVLQWSTIRRLTEEVMQRMTVKAASSETPIGTLSGGNQQKVVIGRWVYAASQILLLDEPTRGVDIEAKQQIYRIVRELAAEGKSVVFISSEVEELPLVCDRILLLQHGTFSQEFHAPVNVDELMSAILSVH”, the “soluble on expression in E. coli” value was “soluble”.

On to “MFTESPSRAISSYQRVGVESGVVSADPHKLILMLFEGARQALDCSLLYIQQNRIAAKGEMISKAIMIIDHGLKASLDKTAGGELANRLEQLYDYMTARLLTANLQNDAVIIEEISCLLGELHEAWASIGNQPAGKTDVQTATRNTIEDTAGTGAMA”, for which the “soluble on expression in E. coli” value is “not soluble”. Under “MFVGPSPPHTPLVNRRNINNHRPRNATVTSALPDIFLAAVSLLFLWSSPKPLVSLPPNRFSFPLNPRRRSITAMSRRSPPPPPPTQRFANPQSLSDWLESRLPSDSFAAWGVKPGTKNVHNLWLELSDGETSLADSTPPVRTVNVVTVRVIGKNGRILVEAHQELSDGSIRERFRPLSEKMKPEESPDEAVFRAIKEELGSIFNGDGDNIGQRIKILPGTYNRRVEERNSLSYPGLPARYALHSVNATVEGLPEQDFCTEEKEYEGGDSTKDSVETLAAGNAVTVKRHYWKWVSPDSIRS” stands “not soluble”. On to “MFVLPVRFERSPRLHPMLSESPHPVGTRVVVQGKRGPEIATVRGEASEPERQARYGAVLRAATPEDLATWEDLHRRAEDLKWLLRARARERGLPVKLVAVEFTLDESLVTISYSADERIELSSLIGELRAHTRARVNFAAIGPREQAQMLGTLGACGRENCSSTHLQDFAPVSIRMARDQQLPLNPEKLSGPCGRLLCCLQYEHEQYLDLLRDLPRKNAKMCHEGSGACGKVTKLHPLAGTVDLQTDQGLLQDVPASELRRLPEQAAARSPRREPREAPASTDLEHHHHHH”, for which the “soluble on expression in E. coli” value is “soluble”.

Regarding “MFYPDPFDVIIIGGGHAGTEAAMAAARMGQQTLLLTHNIDTLGQMSCNPAIGGIGKGHLVKEVDALGGLMAKAIDQAGIQFRILNASKGPAVRATRAQADRVRYRQAVRTALENQPNLMIFQQAVEDLIVENDRVVGAVTQMGLKFRAKAVVLTVGTFLDGKIHIGLDNYSGGRAGDPPSIPLSRRLRELPLRVGRLKTGTPPRIDARTIDFSVLAQQHGDNPMPVFSFMGNASLHPQQVPCYITHTNEKTHDVIRSNLDRSPMYAGVIEGVGPRYCPSIEDKVMRFADRNQHQIFLEPEGLTSNEIYPNGISTSLPFDVQMQIVRSMQGMENAKIVRPGYAIEYDFFDPRDLKPTLESKFIQGLFFAGQINGTTGYEEAAAQGLLAGLNAARLSADKEGWAPARSQAYLGVLVDDLCTLGTKEPYRMFTSRAEYRLMLREDNADLRLTEIGRELGLVDDERWARFNEKLENIERERQRLKSTWVTPSAEAAAEVNAHLTAPLSREASGEDLLRRPEMTYEKLTTLTPFAPALTDEQAAEQVEIQVKYEGYIARQQDEIEKQLRNENTLLPATLDYRQISGLSNEVIAKLNDHKPASIGQASRISGVTPAAISILLVWLKKQGMLRRSA”, the “soluble on expression in E. coli” value is “not soluble”. Under “MGACPRFERASARGMIARNPIKQDPAMRNTQDDHSRFLSLVLRHQPETIGLQLDDQGWADIGELLARLAAKGRNLGRKQLEKIVLDNDKQRFAISEDGLRIRANQGHSIKIDLGLAACEPPDRLYHGTASRFLDAILAEGLRPGQRQHVHLSADGQTARKVGARHGKPVVLEIDARAMRQAGLAFYRSDNGVWLIDGVPPVFIRQTEARLEHHHHHH” stands “soluble”; under “MGAGEKGIVEKEGYQLDTRRQAQAAYPRIKVLVIHYTADDFDSSLATLTDKQVSSHYLVPAVPPRYNGKPRIWQLVPEQELAWHAGISAWRGATRLNDTSIGIELENRGWQKSAGVKYFAPFEPAQIQALIPLAKDIIARYHIKPENVVAHADIAPQRKDDPGPLFPWQQLAQQGIGAWPDAQRVNFYLAGRAPHTPVDTASLLELLARYGYDVKPDMTPREQRRVIMAFQMHFRPTLYNGEADAETQAIAEALLEKYGQD”, “soluble”.
